# In patent publication US20240066131A1 (Protagonist Therapeutics, Inc., priority 2020, published 2024):
# Starred links: 1 amine or outer side, 2 acyl side, 3 side chain; linkers in the order of their positions; H or OH if unused. Non-standard residues stand in square brackets, D forms with d. Groups on a side chain read outwards from the residue. No end group written: not given here. *: point of attachment. bhGly(phenylbutyl) = 3-((4-phenylbutyl)amino)propanoic acid, O=C(CCN(CCCCc1ccccc1)[*:1])[*:2]; Carnitine = carnitine group on the Lys side chain, C[N+](C)(C)C[C@H](O)CC(=O)*; PeptoidIsovaleric Acid = not defined here; Dip = N[C@H](C(=O)O)C(c1ccccc1)c1ccccc1; NH(4-phenylbutyl) = c1ccc(CCCCN*)cc1; Palmitoyl = CCCCCCCCCCCCCCCC(=O)*; β3hF = N[C@H](CC(=O)O)Cc1ccccc1; DMG_N_2ae = not defined here; NMeK = CN[C@@H](CCCCN)C(=O)O; Isovaleryl = CC(C)CC(=O)*; Orn = NCCC[C@H](N)C(=O)O; Dap = NC[C@H](N)C(=O)O; Ahx = NCCCCCC(=O)O
# T1: human ferroportin (SLC40A1) fused in frame with GFP, stably expressed in HEK293 cells (human, UniProt Q9NP59 1-571)
# T1 sequence (looked up): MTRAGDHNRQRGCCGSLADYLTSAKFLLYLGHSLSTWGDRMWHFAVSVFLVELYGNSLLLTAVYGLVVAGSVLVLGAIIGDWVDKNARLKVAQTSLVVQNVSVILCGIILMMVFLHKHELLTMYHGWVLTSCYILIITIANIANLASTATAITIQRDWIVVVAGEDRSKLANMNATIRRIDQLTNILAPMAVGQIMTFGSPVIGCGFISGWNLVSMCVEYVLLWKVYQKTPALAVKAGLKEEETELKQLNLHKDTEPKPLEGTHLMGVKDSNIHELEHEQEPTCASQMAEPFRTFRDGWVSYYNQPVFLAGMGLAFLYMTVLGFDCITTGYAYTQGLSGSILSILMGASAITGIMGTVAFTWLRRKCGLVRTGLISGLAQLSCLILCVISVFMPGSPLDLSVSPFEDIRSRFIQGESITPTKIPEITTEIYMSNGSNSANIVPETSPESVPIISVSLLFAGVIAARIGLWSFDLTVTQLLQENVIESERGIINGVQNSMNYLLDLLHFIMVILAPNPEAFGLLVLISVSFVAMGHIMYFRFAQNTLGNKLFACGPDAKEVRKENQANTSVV
# Biological target: T1, human ferroportin (SLC40A1) fused in …
# Experiment: cell-based or functional assay
row,Binder,FPN IC50
1,Isovaleryl-ETH[Dip]P[dK](Gal)IK([Ahx-Palmitoyl])[β3hF]-NH2 [Isovaleric Acid-E-T-H-[Dpa]-P-d[Lys(Gal)]-I-[Lys(Ahx_Palm)]-[bhPhe]-NH2],246 nM
2,Isovaleryl-ETH[Dip][dK](Gal)AIK([Ahx-Palmitoyl])[β3hF]-NH2 [Isovaleric Acid-E-T-H-[Dpa]-d[Lys(Gal)]-A-I-[Lys(Ahx_Palm)]-[bhPhe]-NH2],654 nM
3,Isovaleryl-[dK](Gal)TH[Dip]PAIK([Ahx-Palmitoyl])[β3hF]-NH2 [Isovaleric Acid-d[Lys(Gal-T-H-[Dpa]-P-A-I-[Lys(Ahx_Palm)]-[bhPhe]-NH2],> 3000 nM
4,{PeptoidIsovaleric Acid}-ETH[Dip]PAIK([Ahx-Palmitoyl])[β3hF]-NH2 (reading uncertain) [PeptoidIsovaleric Acid-E-T-H-[Dpa]-P-A-I-[Lys(Ahx_Palm)]-[bhPhe]-NH2],1120 nM

# Biological target: T1, human ferroportin (SLC40A1) fused in …
# Experiment: cell-based or functional assay
# Remark: another data set of the same source
row,Binder,IC50: FPN internalisation
1,XETHXPXX (N-term Isovaleric Acid; Dpa4; Lys(Ahx_Palm)6; C-term Phenylbutyl Amine) [[Isovaleric Acid]-E-T-H-[Dpa]-P-[Lys(Ahx_Palm)]-[Phenylbutyl Amine]],5.41 nM
2,Isovaleryl-KTH[Dip]PAK(Carnitine)E[NMeK]([Ahx-Palmitoyl])-{NH(4-phenylbutyl)} (SMILES CCCCCCCCCCCCCCCC(=O)NCCCCCC(=O)NCCCC[C@@H](C(=O)NCCCCc1ccccc1)N(C)C(=O)[C@H](CCC(=O)O)NC(=O)[C@H](CCCCNC(=O)C[C@@H](O)C[N+](C)(C)C)NC(=O)[C@H](C)NC(=O)[C@@H]1CCCN1C(=O)[C@@H](NC(=O)[C@H](Cc1c[nH]cn1)NC(=O)[C@@H](NC(=O)[C@H](CCCCN)NC(=O)CC(C)C)[C@@H](C)O)C(c1ccccc1)c1ccccc1) [[Isovaleric Acid]-K-T-H-[Dpa]-P-A-[Lys(Carnitine)]-E-[N-MeLys(Ahx_Palm)]-[Phenylbutyl Amine]],5.9 nM
3,Isovaleryl-KTH[Dip]PAIE[β3hF]K([Ahx-Palmitoyl])K(Carnitine)-NH2 (SMILES CCCCCCCCCCCCCCCC(=O)NCCCCCC(=O)NCCCC[C@H](NC(=O)C[C@H](Cc1ccccc1)NC(=O)[C@H](CCC(=O)O)NC(=O)[C@@H](NC(=O)[C@H](C)NC(=O)[C@@H]1CCCN1C(=O)[C@@H](NC(=O)[C@H](Cc1c[nH]cn1)NC(=O)[C@@H](NC(=O)[C@H](CCCCN)NC(=O)CC(C)C)[C@@H](C)O)C(c1ccccc1)c1ccccc1)[C@@H](C)CC)C(=O)N[C@@H](CCCCNC(=O)C[C@@H](O)C[N+](C)(C)C)C(N)=O) [[Isovaleric Acid]-K-T-H-[Dpa]-P-A-I-E-[bhPhe]-[Lys(Ahx_Palm)]-[Lys(Carnitine)]-NH2],10.7 nM
4,Isovaleryl-ETH[Dip]P[DMG_N_2ae][NMeK]([Ahx-Palmitoyl])[β3hF]-NH2 (reading uncertain) [[Isovaleric Acid]-E-T-H-[Dpa]-P-[DMG_N_2ae]-[N-MeLys(Ahx_Palm)]-[bhPhe]-NH2],10.7 nM
5,Isovaleryl-KTH[Dip]P[DMG_N_2ae]E[β3hF]K([Ahx-Palmitoyl])-NH2 (reading uncertain) [[Isovaleric Acid]-K-T-H-[Dpa]-P-[DMG_N_2ae]-E-[bhPhe]-[Lys(Ahx_Palm)]-NH2],13.6 nM
6,XETHXPXXXX (N-term Isovaleric Acid; Dpa4; DMG_N_2ae6; (D)Lys7; bhPhe8; Lys(Ahx_Palm)9; C-term NH2) [[Isovaleric Acid]-E-T-H-[Dpa]-P-[DMG_N_2ae]-[(D)Lys]-[bhPhe]-[Lys(Ahx_Palm)]-NH2],35.6 nM
7,Isovaleryl-[Dap]TH[Dip]PAI[NMeK]([Ahx-Palmitoyl])[bhGly(phenylbutyl)] [[Isovaleric Acid]-[Dap]-T-H-[Dpa]-P-A-I-[N-MeLys(Ahx_Palm)]-[bhGly(phenylbutyl)]],597 nM
8,Isovaleryl-[Orn]TH[Dip]PAI[NMeK]([Ahx-Palmitoyl])[bhGly(phenylbutyl)] [[Isovaleric Acid]-[Orn]-T-H-[Dpa]-P-A-I-[N-MeLys(Ahx_Palm)]-[bhGly(phenylbutyl)]],201 nM
